T1: biotinylated HIF-1α ODD peptide, Q16665
T1 chain: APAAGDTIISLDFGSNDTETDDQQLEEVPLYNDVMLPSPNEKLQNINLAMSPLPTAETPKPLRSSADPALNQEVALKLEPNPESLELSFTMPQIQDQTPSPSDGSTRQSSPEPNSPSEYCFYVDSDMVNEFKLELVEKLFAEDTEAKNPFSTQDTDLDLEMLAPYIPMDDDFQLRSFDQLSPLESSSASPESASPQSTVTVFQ

B1: Human HPH-2 (protein)
chain: MANDSGGPGGPSPSERDRQYCELCGKMENLLRCSRCRSSFYCCKEHQRQDWKKHKLVCQGSEGALGHGVGPHQHSGPAPPAAVPPPRAGAREPRKAAARRDNASGDAAKGKVKAKPPADPAAAASPCRAAAGGQGSAVAAEAEPGKEEPPARSSLFQEKANLYPPSNTPGDALSPGGGLRPNGQTKPLPALKLALEYIVPCMNKHGICVVDDFLGKETGQQIGDEVRALHDTGKFTDGQLVSQKSDSSKDIRGDKITWIEGKEPGCETIGLLMSSMDDLIRHCNGKLGSYKINGRTKAMVACYPGNGTGYVRHVDNPNGDGRCVTCIYYLNKDWDAKVSGGILRIFPEGKAQFADIEPKFDRLLFFWSDRRNPHEVQPAYATRYAITVWYFDADERARAKVKYLTGEKGVRVELNKPSDSVGKDVF
B2: Human HPH-1 (protein)
chain: MPLGHIMRLDLEKIALEYIVPCLHEVGFCYLDNFLGEVVGDCVLERVKQLHCTGALRDGQLAGPRAGVSKRHLRGDQITWIGGNEEGCEAISFLLSLIDRLVLYCGSRLGKYYVKERSKAMVACYPGNGTGYVRHVDNPNGDGRCITCIYYLNKNWDAKLHGGILRIFPEGKSFIADVEPIFDRLLFFWSDRRNPHEVQPSYATRYAMTVWYFDAEERAEAKKKFRNLTRKTESALTED

Molecular target: T1, biotinylated HIF-1α ODD peptide, Q16665

Protein	^35S-pVHL pulldown enzyme assay activity (Pro564 hydroxylation of the peptide)
B1	the ^35S-pVHL pulldown enzyme assay activity of each HPH homologue was dependent on 2-OG, Fe(II), and ascorbate
B2	As exemplified by HPH-1, the ^35S-pVHL pulldown enzyme assay activity of each HPH homologue was dependent on 2-OG, Fe(II), and ascorbate

— US20080045463
